The values below come from patent US7655453B2, “Recombinant Candida rugosa lipases” (Academia Sinica, priority 2001, dated 2010).

Substrate in the data set: CCCCC/C=C\C/C=C\CCCCCCCC(=O)O[C@H]1CC[C@@]2(C)C(=CC[C@H]3[C@@H]4CC[C@H]([C@H](C)CCCC(C)C)[C@@]4(C)CC[C@@H]32)C1
The experiment in a line: purified protein, by the assay type. The data set is classed as biochemical, Candida rugosa. Particulars: other: 37° C., pH 7.0, Trx-LIP4 29 nM, average of three independent experiments. From the text:
Construction of expression vectors The E. coli expression vectors pET23a-LIP4-S19 and pET23a-trx-LIP4-S19 were constructed as described in Tang et al. (2000) Protein Exp. Purif. 20: 308-313. Open-reading frames of LIP1, LIP2, LIP3, and LIP5 without the leader sequence were obtained by reverse transcription-polymerase chain reaction (RT-PCR). See Longhi et al. (1992) Biochim. Biophy. […] The chimeric DNA sequences were constructed by replacing the SphI(184)-BstXI(304) restriction DNA fragment of LIP4 with the corresponding fragments of LIP1, LIP2, LIP3, or LIP5, respectively. The resulting sequences encode mature chimeric C. rugosa lipases, denoted as TrX-LIP4/lid1, TrX-LIP4/lid2, TrX-LIP4/lid3, and TrX-LIP4/lid5, and were confirmed by DNA sequencing.
Preparation of recombinant LIP4 from E. coli. E. coli strain AD494(DE3) (Novagen, Milwaukee, Wis.) harboring recombinant plasmid was grown overnight at 37° C. in Luria-Bertani (LB) broth supplemented with 50 μg/mL ampicillin and 15 μg/mL kanamycin. The cells were then diluted 20-fold into fresh medium and incubated with shaking at 25° C. After adding IPTG to give a final concentration of 0.05 mM, the cells were incubated at 10° C. until OD600 reached 1.0.
Purification of recombinant LIP4. After induction, the AD494(DE3) transformants were harvested by centrifugation at 4000 g and 4° C. for 10 min. The cell pellet was resuspended in TE buffer (20 mM Tris-HCl and 2.5 mM EDTA, pH 8.0). The cells were disrupted with a sonicator, and the soluble fractions of the cell lysates were then collected by centrifugation at 15,000 g at 4° C. for 30 min. The soluble fractions were concentrated by ultrafiltration on a 10,000 molecular weight cut-off membrane. These samples were then applied onto a DEAE-Sepharose CL-6B (Pharmacia Biotech) column equilibrated with TE buffer. Recombinant lipases were eluted using a linear gradient of 0 to 100 mM (NH4)2SO4 over 5 column volumes.
The eluted proteins were then applied to a Butyl-Sepharose 4 Fast Flow (Pharmacia Biotech) hydrophobic interaction column. The column was washed with 5 bed volumes of TE buffer plus 1 mM and then 4 mM CHAPS. Bound proteins were then eluted with 5 bed volumes of TE buffer containing 30 mM CHAPS. The eluted samples were dialyzed against TE buffer and stored in a storage buffer (60 mM KCl, 10 mM Tris-HCl, 1.25 mM EDTA, 1% Triton X-100, and 17% glycerol, pH 7.5) at −20° C. Protein concentrations in the fractions were measured with the Bio-Rad assay kit, and esterase activity was determined using p-nitrophenyl butyrate as a substrate. The molecular masses of the purified recombinant lipases and a commercial lipase (Lipase Type VII, Sigma L1754) were determined by SDS-PAGE analysis. […]

B1: Candida rugosa lipase 4 (LIP4), recombinant, E. coli thioredoxin fused to the N-terminal (Trx-LIP4) (Diutina rugosa) (protein)
chain: SMNSRGPAGRLGSVPTATLANGDTITGLNAIINEAFLGIPFAQPPVGNLRFKPPVPYSASLNGQKFTSYGPSCMQMNPLGNWDSSLPKAAINSLMQSKLFQAVLPNGEDCLTINVVRPSGTKPGANLPVMVWIFGGGFEVGGSSLFPPAQMITASVLMGKPIIHVSMNYRVASWGFLAGPDIKAEGSGNAGLHDQRLGLQWVADNIAGFGGDPSKVTIFGESAGSMSVMCQLLWNDGDNTYNGKPLFRAAIMQSGAMVPSDPVDGPYGTQIYDQVVASAGCGSASDKLACLRSISNDKLFQATSDTPGALAYPSLRLSFLPRPDGTFITDDMFKLVRDGKCANVPVIIGDQNDEGTVFALSSLNVTTDAQARQYFKESFIHASDAEIDTLMAAYPSDITQGSPFDTGIFNAITPQFKRIAAVLGDLAFTLPRRYFLNHFQGGTKYSFLSKQLSGLPVIGTHHANDIVWQDFLVSHSSAVYNNAFIAFANDLDPNKAGLLVNWPKYTSSSQSGNNLLQINALGLYTGKDNFRTAGYDALFTNPSSFFV
As usually defined, the Vmax is the top rate of the reaction or transport when substrate is in excess. In general, kcat refers to the maximal rate divided by the concentration of active sites. Usually kcat/Km stands for the second-order rate constant that governs catalysis at low substrate concentration. Turning to B1, the Km was 104 ± 10 10^−3 mM, the Vmax came out at 2.9 µmol/min/mg, the kcat amounted to 3.37 ± 0.135 s⁻¹ and the kcat/Km came to 32300 ± 2320 M⁻¹ s⁻¹.
